Source: patent publication US20140178388A1 (INDUSTRIAL TECHNOLOGY RESEARCH INSTITUTE, published 2014)

Legend:
[1] = biological target: T1, mouse CD3 on mouse spleen T lymphocytes (mouse, UniProt P22646 22-189); experiment: flow cytometry (MFI) on purified mouse spleen T lymphocytes, serial dilution
T1 construct: whole, on cells; also called mouse T lymphocytes

[2] = biological target: T2, human CD3 (TCR-CD3 complex) on human T cells (human, UniProt P07766 23-207); experiment: flow cytometry (MFI) on purified human T lymphocytes, serial dilution
T2 construct: whole, on cells; The other subunits of the complex on the cells are not described; also called CD3ε chain; CD3(+) Jurkat T cells

T1 sequence (P22646 22-189): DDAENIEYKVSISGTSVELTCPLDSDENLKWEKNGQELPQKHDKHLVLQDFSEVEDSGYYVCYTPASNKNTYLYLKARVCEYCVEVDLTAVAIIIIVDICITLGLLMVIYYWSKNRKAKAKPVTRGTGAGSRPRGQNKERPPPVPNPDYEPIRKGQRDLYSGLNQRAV

Molecule: hamster anti-mouse CD3 antibody (145-2C11)
- Kd [1]: 15 nM

B1: hOKT3FabCSA trimer (Fab, V domains shown)
VH: QVQLVQSGGGVVQPGRSLRLSCKASGYTFTRYTMHWVRQAPGKGLEWIGYINPSRGYTNYNQKVKDRFTISRDNSKNTAFLQMDSLRPEDTGVYFCARYYDDHYCLDYWGQGTPVTVSS
VL: DIQMTQSPSSLSASVGDRVTITCSASSSVSYMNWYQQTPGKAPKRWIYDTSKLASGVPSRFSGSGSGTDYTFTISSLQPEDIATYYCQQWSSNPFTFGQGTKLQITR
notes: Trimeric Fab-collagen-like peptide fusion from the Superdex 200 peak 2 fraction; Expressed in CHO-S cells; also called trimeric hOKT3FabCSA; trivalent hOKT3FabCSA
- Kd [2]: 0.02 nM
- fold greater binding strength than hOKT3IgG-AA [2]: 7.5 fold

B2: low-Fc binding anti-human CD3 antibody-hOKT3IgG-AA (antibody, V domains shown)
VH: B1 VH
VL: DIQMTQSPSSLSASVGDRVTITCSASSSVSYMNWYQQTPGKAPKRWIYDTSKLASGVPSRFSGSGSGTDYTFTISSLQPEDIATYYCQQWSSNPFTFGQGTKLQIT
notes: also called hOKT3IgG-AA (dimer)
- Kd [2]: 0.15 nM

B3: h145FabCSA trimer (Fab, V domains shown)
VH: EVQLQESGGGLVQPGKSLKLSCEASGFTFSGYGMHWVRQAPGRGLESVAYITSSSINIKYADAVKGRFTVSRDNAKNLLFLQMNILKSEDTAMYYCARFDWDKNYWGQGTMVTVSS
VL: DIQMTQSPSSLPASLGDRVTINCQASQDISNYLNWYQQKPGKAPKLLIYYTNKLADGVPSRFSGSGSGRDSSFTISSLESEDIGSYYCQQYYNYPWTFGPGTKVEIKR
notes: Trimeric Fab-collagen-like peptide fusion from the Superdex 200 peak 2 fraction; Expressed in NS0 cells; also called trimeric h145FabCSA
- Kd [1]: 4 nM
- fold greater binding strength than 145-2C11 [1]: 3.75 fold
